Legend:
[1] = system: CA20948 rat tissues and organs; assay: Fluorescence imaging of ex-vivo tissues and organs from CA20948 tumor bearing rat; type: in vivo; conditions: 27 hours post administration (FIG. 5)
Description: Individual organs were removed from the CA20948 rat which was injected with cytate 1 and were imaged.

[2] = system: DSL 6/A (pancreatic) tumor; assay: In vivo fluorescence imaging of DSL 6/A tumor bearing rats; design: species or system male Lewis rats; conditions: images at 2 and 30 minutes post administration, 0.5 ml of 0.42 mg/ml i.v.
From the text: (§1) A non-invasive in vivo fluorescence imaging apparatus was employed to assess the efficacy of indocyanine green (ICG) in three different rat tumor cell lines of the inventive contrast agents developed for tumor detection in animal models. A LaserMax Inc. laser diode of nominal wavelength 780 nm and nominal power of 40 mW was used. The detector was a Princeton Instruments model RTE/CCD-1317-K/2 CCD camera with a Rodenstock 10 mm F2 lens (stock #542.032.002.20) attached. An 830 nm […] (CVI Laser Corp., part #F10-830-4-2) was mounted in front of the CCD input lens, such that only emitted fluorescent light from the contrast agent was imaged.
(§2) Three tumor cell lines, DSL 6/A (pancreatic), Dunning R3327-H (prostate), and CA20948 (pancreatic), which are rich in somatostatin (SST-2) receptors were induced into male Lewis rats by solid implant technique in the left flank area (Achilefu et al., Invest. Radiology, 2000, pp. 479-485). Palpable masses were detected nine days post implant.
(§3) The animals were anesthetized with xylazine:ketamine:acepromazine (1.5:1.5:0.5^v/v) at 0.8 ml/kg via intramuscular injection. The left flank was shaved to expose the tumor and surrounding surface area. A 21-gauge butterfly needle equipped with a stopcock connected to two syringes containing heparinized saline was placed into the tail vein of the rat. […]

[3] = system: Dunning R3327-H (prostate) tumor; assay: In vivo fluorescence imaging of Dunning R3327-H tumor bearing rats; design: species or system male Lewis rats; conditions: images at 2 and 30 minutes post administration, 0.5 ml of 0.42 mg/ml i.v.
From the text: as §1, §2, §3

[4] = system: CA20948 (pancreatic) tumor, rich in somatostatin (SST-2) receptors; assay: In vivo fluorescence imaging of CA20948 tumor bearing rats; design: species or system male Lewis rats
From the text: as §1, §2, §3

C[C@@H](O)[C@H](NC(=O)[C@@H]1CSSC[C@H](NC(=O)[C@@H](Cc2ccccc2)NC(=O)CC[N+]2=C(/C=C/C=C/C=C/C=C3/N(CCC(=O)O)c4ccc5ccccc5c4C3(C)C)C(C)(C)c3c2ccc2ccccc32)C(=O)N[C@@H](Cc2ccc(O)cc2)C(=O)N[C@H](Cc2c[nH]c3ccccc23)C(=O)N[C@@H](CCCCN)C(=O)N[C@@H]([C@@H](C)O)C(=O)N1)C(=O)O [Cytate 1, monooctreotate-bisethylcarboxymethylindocyanine dye]
uptake of the conjugate in adrenal glands ([1]; ex vivo organ): High uptake | uptake of the conjugate in heart ([1]; ex vivo organ): Significant lower uptake | uptake of the conjugate in liver ([1]; ex vivo organ): Significant lower uptake | uptake of the conjugate in pancreas ([1]; ex vivo organ): High uptake | uptake of the conjugate in spleen ([1]; ex vivo organ): Significant lower uptake | uptake of the conjugate in muscle ([1]; ex vivo tissue): Significant lower uptake | uptake of the conjugate in tumor tissue ([1]; ex vivo tissue): High uptake

CC1(C)C(/C=C/C=C/C=C/C=C2\N(CCCCS(=O)(=O)O)c3ccc4ccccc4c3C2(C)C)=[N+](CCCCS(=O)(=O)[O-])c2ccc3ccccc3c21 [ICG, indocyanine green]
perfusion of the agent into the tumor [2]: slow perfusion of the agent into the tumor over time | perfusion of the agent into the tumor [3]: slow perfusion of the agent into the tumor over time | non-specific localization into the tumor line ([4]; compared to the other two lines): no non-specific localization | perfusion of the agent into the tumor ([4]; images at 2 and 30 minutes post administration, 0.5 ml of 0.42 mg/ml i.v.): only a slight and transient perfusion that was cleared after only 30 minutes post injection

— patent US6761878B2, “Pathological tissue detection and treatment employing targeted benzoindole optical agents” (Mallinckrodt, Inc., priority 2001, dated 2004)
